Experimental findings from patent US20190194324A1 (published 2019) are described below.

Experiment [1] has as its target α-syn-biotin PFF (biotin-labelled α-synuclein pre-formed fibrils) (mouse, UniProt O55042 1-140). The experiment can be described thus: cell surface binding (SH-SY5Y).
Experiment [2] has as its target T1, α-syn-biotin monomer (mouse, UniProt O55042 1-140). As to the kind of experiment: cell surface binding (SH-SY5Y).
Experiment [3] has as its target T1, α-syn-biotin monomer. The experiment can be described thus: cell surface binding (SH-SY5Y); LAG3* (no Triton).

B1: LAG3 (protein)
chain: MWEAQFLGLLFLQPLWVAPVKPLQPGAEVPVVWAQEGAPAQLPCSPTIPLQDLSLLRRAGVTWQHQPDSGPPAAAPGHPLAPGPHPAAPSSWGPRPRRYTVLSVGPGGLRSGRLPLQPRVQLDERGRQRGDFSLWLRPARRADAGEYRAAVHLRDRALSCRLRLRLGQASMTASPPGSLRASDWVILNCSFSRPDRPASVHWFRNRGQGRVPVRESPHHHLAESFLFLPQVSPMDSGPWGCILTYRDGFNVSIMYNLTVLGLEPPTPLTVYAGAGSRVGLPCRLPAGVGTRSFLTAKWTPPGGGPDLLVTGDNGDFTLRLEDVSQAQAGTYTCHIHLQEQQLNATVTLAIITVTPKSFGSPGSLGKLLCEVTPVSGQERFVWSSLDTPSQRSFSGPWLEAQEAQLLSQPWQCQLYQGERLLGAAVYFTELSSPGAQRSGRAPGALPAGHLLLFLILGVLSLLLLVTGAFGFHLWRRQWRPRRFSALEQGIHPPQAQSKIEELEQEPEPEPEPEPEPEPEPEPEQL
As for B1, the Kd was 0.077 µM in experiment [1] and > 3 µM in experiment [2].

B2: LAG3 overexpressed in transfected cells (SH-SY5Y; HEK293FT) (receptor)
chain: LQPGAEVPVVWAQEGAPAQLPCSPTIPLQDLSLLRRAGVTWQHQPDSGPPAAAPGHPLAPGPHPAAPSSWGPRPRRYTVLSVGPGGLRSGRLPLQPRVQLDERGRQRGDFSLWLRPARRADAGEYRAAVHLRDRALSCRLRLRLGQASMTASPPGSLRASDWVILNCSFSRPDRPASVHWFRNRGQGRVPVRESPHHHLAESFLFLPQVSPMDSGPWGCILTYRDGFNVSIMYNLTVLGLEPPTPLTVYAGAGSRVGLPCRLPAGVGTRSFLTAKWTPPGGGPDLLVTGDNGDFTLRLEDVSQAQAGTYTCHIHLQEQQLNATVTLAIITVTPKSFGSPGSLGKLLCEVTPVSGQERFVWSSLDTPSQRSFSGPWLEAQEAQLLSQPWQCQLYQGERLLGAAVYFTELSSPGAQRSGRAPGALPAGHLLLFLILGVLSLLLLVTGAFGFHLWRRQWRPRRFSALEQGIHPPQAQSKIEELEQEPEPEPEPEPEPEPEPEPEQL
On to B2, for which, in experiment [3], the Kd is > 3 µM.

As a reminder, the Kd is the constant that tells how readily two partners part at equilibrium.
